Assay results reported in patent publication US20160152676A1 (COLORADO STATE UNIVERSITY RESEARCH FOUNDATION, published 2016).

Columns and labels:
5-Helix-His6x [1] = molecular target: T1, 5-Helix-His6x (HIV-1); assay: ELISA on E. coli lysate, His6-tagged 5-helix captured on Ni-NTA plates, anti-FLAG detection
T1 construct: also called His6-tagged 5-helix; 5-Helix bundle

[2] = molecular target: T2, AviTag-5-helix-His6x, biotinylated (HIV-1, biotin conjugated to the AviTag with BirA); assay: ELISA, biotinylated 5-helix on streptavidin plates, 50 nM GLUE-Cpep pre-incubated in human serum, anti-FLAG detection
T2 construct: also called Biotinylated 5-helix; AviTagged 5-helix; not shown: N-terminal AviTag and any linker

5-Helix-His6x [3] = molecular target: T1, 5-Helix-His6x; assay: Ni-NTA co-purification from E. coli lysate, densitometry of the protein bands
5-Helix-His6x [4] = molecular target: T1, 5-Helix-His6x; assay: circular dichroism of a 1:1 mixture, wavelength scan and thermal melt

B1: FLAG-CHR (peptide)
peptide: MDYKDDDDKGGSWMEWDREINNYTSLIHSLIEESQNQQEKNEQELL
notes: Co-expressed with 5-Helix-His6x in E. coli; also called C-peptide; native C-peptide
binding result (5-Helix-His6x [1]): binds

B2: FLAG-GLUE-Cpep (designed binder)
chain: MDYKDDDDKGGSEYWHYVETTSSGQPLLREGEKDIAIDQSVGLYHGKSKILQRQRGRIFLTSQRIIYIDDAKPTQNSLGLELDDLAYVNYSSGFLTRSPALILFFKDPSSSTEFVQLSFRKSDGVWFSWATEIALYTILIHSLIEESQNQQEKNEQELL
notes: Co-expressed with 5-Helix-His6x in E. coli; lysate ELISA; also called grafted GLUE; helix-grafted GLUE
binding result (5-Helix-His6x [1]): binds

B3: FLAG-GLUE-Cpep (pET-28a construct, His6x-FLAG-GLUE-Cpep) (designed binder)
chain: MGSSHHHHHHSSGLVPRGSHMDYKDDDDKGGSEYWHYVETTSSGQPLLREGEKDIAIDQSVGLYHGKSKILQRQRGRIFLTSQRIIYIDDAKPTQNSLGLELDDLAYVNYSSGFLTRSPALILFFKDPSSSTEFVQLSFRKSDGVWFSWATEIALYTILIHSLIEESQNQQEKNEQELL
notes: Purified, pre-incubated with human serum, then tested in ELISA on biotinylated 5-helix
binding result [2]: binds

B4: GLUE-Cpep (untagged) (designed binder)
chain: MEYWHYVETTSSGQPLLREGEKDIAIDQSVGLYHGKSKILQRQRGRIFLTSQRIIYIDDAKPTQNSLGLELDDLAYVNYSSGFLTRSPALILFFKDPSSSTEFVQLSFRKSDGVWFSWATEIALYTILIHSLIEESQNQQEKNEQELL
notes: Co-expressed with 5-Helix-His6x in E. coli; also called untagged GLUE-Cpep
ratio of proteins in the complex (stoichiometry) (5-Helix-His6x [3]): 1 ratio (1:1)

B5: His6x-GLUE-Cpep (designed binder)
chain: MGSSHHHHHHSQDPGLNDIFEAQKIEWHEGGSGGSGGTEYWHYVETTSSGQPLLREGEKDIAIDQSVGLYHGKSKILQRQRGRIFLTSQRIIYIDDAKPTQNSLGLELDDLAYVNYSSGFLTRSPALILFFKDPSSSTEFVQLSFRKSDGVWFSWATEIALYTILIHSLIEESQNQQEKNEQELL
notes: Purified construct used in CD; also called helix-grafted GLUE
binding result (5-Helix-His6x [4]): binds

B6: FLAG-GLUE (other)
chain: MDYKDDDDKGGSEYWHYVETTSSGQPLLREGEKDIFIDQSVGLYHGKSKILQRQRGRIFLTSQRIIYIDDAKPTQNSLGLELDDLAYVNYSSGFLTRSPALILFFKDPSSSTEFVQLSFRKSDGVLFSQATERALENILT
notes: Co-expressed with 5-Helix-His6x in E. coli; lysate ELISA; also called wtGLUE; wt-GLUE
binding result (5-Helix-His6x [1]): no binding
